Values of other authors as cited in paper PMC6557900.

Target: GHR pY487 pY487 region (Homo sapiens) (UniProt P10912)
Sequence (P10912 whole entry, looked up): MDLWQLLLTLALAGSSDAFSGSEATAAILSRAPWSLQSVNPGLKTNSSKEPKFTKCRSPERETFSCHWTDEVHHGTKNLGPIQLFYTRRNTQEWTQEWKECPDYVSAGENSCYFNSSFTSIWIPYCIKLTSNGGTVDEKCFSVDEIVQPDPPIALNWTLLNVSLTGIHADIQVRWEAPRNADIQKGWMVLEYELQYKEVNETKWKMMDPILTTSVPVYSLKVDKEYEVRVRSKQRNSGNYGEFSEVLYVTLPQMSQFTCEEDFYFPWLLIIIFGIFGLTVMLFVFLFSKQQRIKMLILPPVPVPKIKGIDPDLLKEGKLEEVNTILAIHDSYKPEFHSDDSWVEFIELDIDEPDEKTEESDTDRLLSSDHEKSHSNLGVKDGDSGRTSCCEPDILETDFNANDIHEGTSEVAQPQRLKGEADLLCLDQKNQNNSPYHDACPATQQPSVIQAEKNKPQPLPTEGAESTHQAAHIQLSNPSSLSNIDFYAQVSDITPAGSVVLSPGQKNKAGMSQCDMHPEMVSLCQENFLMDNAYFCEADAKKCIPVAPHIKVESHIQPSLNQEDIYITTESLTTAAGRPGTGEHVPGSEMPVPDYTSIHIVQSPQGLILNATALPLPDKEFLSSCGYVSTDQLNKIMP

Chain of SOCS2 (O14508 whole entry): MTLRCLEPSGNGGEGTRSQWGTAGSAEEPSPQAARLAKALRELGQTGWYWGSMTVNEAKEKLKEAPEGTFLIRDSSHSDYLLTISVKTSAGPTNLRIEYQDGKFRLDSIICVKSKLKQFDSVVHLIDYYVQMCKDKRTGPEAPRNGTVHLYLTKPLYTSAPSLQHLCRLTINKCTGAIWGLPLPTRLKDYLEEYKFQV

Kd: 11.3 µM
Substance: SOCS2 (from UniProt O14508)
